In patent US6123948:

Molecular target: HPV-6 L2E7 fusion protein (encoded by plasmid pGW53: pelB leader, HPV-6 L2, HPV-6 E7, His Tag) (human papillomavirus type 6 (HPV-6), clinical isolate H26) (UniProt P06464)

In the case of “draining (axillary) lymph node cells from B6CBA mice immunized with L2E7/Alum (cells without a defined receptor)”, the incorporation of tritiated thymidine (in-vitro lymphoproliferative response) (stimulation index) is reported as 50.
